Values quoted from earlier work in paper PMC5874834.

Target: VEGF165 VEGF165 (Homo sapiens) (UniProt P15692)
Chain of UniProt P15692 (P15692 207-321, chain 1 of 2): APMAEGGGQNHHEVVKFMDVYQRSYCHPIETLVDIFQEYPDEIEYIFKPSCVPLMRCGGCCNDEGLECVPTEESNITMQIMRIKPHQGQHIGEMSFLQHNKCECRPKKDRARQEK
Chain of UniProt P15692 (P15692 346-395, chain 2 of 2): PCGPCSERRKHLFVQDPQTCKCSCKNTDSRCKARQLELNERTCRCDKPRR

Substance: Brolucizumab scFv
- Kd: 1.6 pM
